Results taken from patent US20190016816A1 (APTEVO RESEARCH AND DEVELOPMENT, published 2019).

Tests used:
human CD137 on cells [1] = biological target: T1, human CD137 on cells (human, UniProt Q07011 24-255); experiment: flow cytometry, CHO-K1/human CD137 cells, PE anti-human IgG Fc secondary, MFI (mean)
T1 construct: also called 4-1BB; TNFRSF9 (CHO-K1/human CD137 cells)
Protocol: Binding studies on CHO-K1 cells lines expressing CD137 were performed by standard flow cytometry-based staining procedures. CHO-K1 cells (generated by Alligator) were transfected with human or cynomolgus macaque CD137. A typical experiment would label approximately 100,000 cells per well, in 96-well plates, with a range of 100 nM to 0.05 nM binding molecule in 50 μL of saline buffer with 2% BSA and 2 mM EDTA, for 30 min on ice, followed by washes and incubation with PE-labeled secondary antibody, goat anti-human IgG Fcγ ([…]), for 20 minutes on ice. Signal from bound molecules was detected using a LSR-II™ or a Symphony A3 flow cytometer (BD Biosciences) and analyzed by FlowJo flow cytometry analysis software. […] Nonlinear regression analysis to determine EC₅₀ values was performed in GraphPad Prism 6® graphing and statistics software.

FcγRIIIa (CD16a Phe158) = biological target: T2, FcγRIIIa (CD16a Phe158) (UniProt P08637 17-254, limits assumed); experiment: flow cytometry, CHO cells stably expressing CD16a Phe158, fluorescent anti-human IgG secondary, MFI (mean)
T2 construct: whole, on cells; allotype Phe158 as printed
Excerpt: ALG.APV-210 contains mutations introduced to prevent interaction with Fcγ receptors (FcγR) that could lead to FcγR-mediated T-cell activation or ADCC, ADCP, CDC etc. Binding of ALG.APV-210 was therefore tested on CHO cell transfectants stably expressing the following FcγR: FcγRI (CD64), FcγRIIa (CD32a His131), FcγRIIb (CD32b), FcγRIIIa (CD16a Val158 and CD16a Phe158), and FcγRIIIb (CD16b). Untransfected CHO cells were used as negative control. A control human IgG1 molecule was used as a positive control. Different concentrations of ALG.APV-210 or control IgG1 were incubated with the FcγR-expressing cell lines, washed, and labeled with a secondary anti-human IgG reagent. Binding of ALG.APV-210 and the control IgG1 was detected by flow cytometry.

[2] = biological target: cynomolgus CD137 on cells (cynomolgus macaque, UniProt A9YYE7 24-254); experiment: cell-based or functional assay
human CD137 on cells [3] = biological target: T1, human CD137 on cells; experiment: cell-based or functional assay
human 5T4 on cells [4] = biological target: T3, human 5T4 on cells (human, UniProt Q13641 32-420); experiment: flow cytometry, CHO/5T4 cells, PE goat anti-human Fc
T3 construct: also called TPBG; hu5T4
T3 sequence: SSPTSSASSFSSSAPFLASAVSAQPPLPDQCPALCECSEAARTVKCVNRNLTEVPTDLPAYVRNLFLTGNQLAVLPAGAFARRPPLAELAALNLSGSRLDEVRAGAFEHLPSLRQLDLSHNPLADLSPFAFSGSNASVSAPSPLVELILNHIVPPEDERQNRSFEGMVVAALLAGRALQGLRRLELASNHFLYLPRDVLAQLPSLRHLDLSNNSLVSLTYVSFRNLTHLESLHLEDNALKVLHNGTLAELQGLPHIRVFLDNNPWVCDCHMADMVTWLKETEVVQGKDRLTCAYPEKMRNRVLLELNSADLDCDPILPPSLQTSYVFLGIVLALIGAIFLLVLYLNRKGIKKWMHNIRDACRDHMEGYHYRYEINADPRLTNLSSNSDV
Protocol: A 3-fold titration of ALG.APV-210 construct (ranging from 100 nM to 0.14 nM) was incubated with the human 5T4-expressing cell lines for 40 minutes in FACS buffer at 4° C., washed 3 times, and detected with PE-labeled, goat-anti-human Fc secondary antibody (Jackson ImmunoResearch). Binding of ALG.APV-210 was detected by flow cytometry. All samples were run in duplicates. Nonlinear regression analysis to determine EC₅₀ values was performed in GraphPad Prism 6® graphing and statistics software.

human 5T4 on cells [5] = biological target: T3, human 5T4 on cells; experiment: flow cytometry, CT26 cells transfected with human 5T4 (low clone), biotinylated ALG.APV-210 + streptavidin-PE, 1 of 2 experiments
Protocol: (§1) Prior to the FACS staining, all cell lines were characterized for their 5T4 expression levels using a receptor density kit (Quantum Simply Cellular, anti-human IgG, Bangs Laboratories, Inc). Adherent cell lines were cultured according to their supplier's instructions and were harvested from their cell culture flasks using Trypsin/EDTA, counted in R10 medium in a Burker chamber, and diluted in FACS buffer (PBS+0.5% BSA, 0.05% NaN₃) to a concentration of 4×10⁶ cells/mL. 50 μL (0.20×10⁶) of cell solution was added to a 96-well FACS staining plate (Falcon #351190). Cells were incubated for 20 min in 4° C. with 50 μL of the biotinylated ALG.APV-210 (2× final concentration). The antibodies were added in a serial dilution starting at 20 μg/mL titrating down in a 12 step ½ dilution down to 0.010 μg/mL. […] Cells were analysed for ALG.APV-210 binding using flow cytometry (FACSVerse) by gating on single cells. MFI values (secondary antibody only subtracted) from 1 out of 2 independent experiments, as well as normalized data and EC₅₀-values of pooled data from 2 experiments were determined and plotted using GraphPad Prism 7, non-linear regression log (agonist) vs. normalized response—variable slope.
The binding (EC₅₀) of the biotinylated ALG.APV-210 to 5T4 when expressed on cells, either at endogenous levels on human tumor cells or on cells transfected to express 5T4 was assessed. […]

human 5T4 on cells [6] = biological target: T3, human 5T4 on cells; experiment: flow cytometry, BxPC-3 cells, streptavidin-PE, normalized MFI of 2 pooled experiments
Protocol: as §1, with “μg/mL. Following 2× washing with FACS buffer, cells were incubated for 30 min in 4° C. with 100 μL of a secondary antibody (streptavidin-PE, BD #554061, diluted 1/500).” for “μg/mL.”

T1 sequence (Q07011 24-255 limits assumed): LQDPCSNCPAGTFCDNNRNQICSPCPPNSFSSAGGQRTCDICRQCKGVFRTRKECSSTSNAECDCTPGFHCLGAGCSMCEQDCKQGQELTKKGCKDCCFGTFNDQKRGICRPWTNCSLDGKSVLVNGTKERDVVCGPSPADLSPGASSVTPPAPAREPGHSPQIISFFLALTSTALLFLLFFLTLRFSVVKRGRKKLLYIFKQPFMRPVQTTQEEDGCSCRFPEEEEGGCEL
T2 sequence (P08637 17-254 limits assumed): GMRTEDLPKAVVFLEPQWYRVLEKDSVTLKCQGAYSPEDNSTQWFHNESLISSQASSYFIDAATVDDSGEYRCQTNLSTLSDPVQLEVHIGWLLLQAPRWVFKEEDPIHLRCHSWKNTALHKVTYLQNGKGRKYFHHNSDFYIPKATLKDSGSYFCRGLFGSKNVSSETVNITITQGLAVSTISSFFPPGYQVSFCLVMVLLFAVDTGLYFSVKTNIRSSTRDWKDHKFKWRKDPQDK
Chain of cynomolgus CD137 on cells (A9YYE7 entry or part of it): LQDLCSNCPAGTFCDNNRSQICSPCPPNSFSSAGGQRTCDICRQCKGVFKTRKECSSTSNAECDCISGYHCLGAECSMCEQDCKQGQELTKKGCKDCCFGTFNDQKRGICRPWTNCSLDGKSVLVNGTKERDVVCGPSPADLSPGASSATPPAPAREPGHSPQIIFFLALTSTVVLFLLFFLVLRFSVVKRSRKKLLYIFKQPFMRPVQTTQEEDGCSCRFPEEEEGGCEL

| Binder | EC50 (human CD137 on cells [1]) [nM] | Maximum MFI (human CD137 on cells [1]) | binding result (FcγRIIIa (CD16a Phe158)) | EC50 (nM), IFNγ release of cynomolgus CD8 T cells on plate immobilized 5T4-Fc and anti-CD3 [2] [nM] | EC50 (nM), IFNγ release of human CD8 T cells on plate immobilized 5T4-Fc and anti-CD3 (human CD137 on cells [3]) [nM] | EC50 (human 5T4 on cells [4]) [nM] | EC50 (read off the curve) (human 5T4 on cells [5]) [nM] | EC50 (human 5T4 on cells [6]) [nM] |
| --- | --- | --- | --- | --- | --- | --- | --- | --- |
| ALG.APV-187 (bispecific antibody, Optimized ADAPTIR scFv-Fc-scFv homodimer with stabilizing disulfide in the 1210 scFv) EVQLLESGGGLVQPGGSLRLSCAASGFTFSHGSMYWVRQAPGKGLEWVSSISSGSGSTYYADSVKGRFTISHDNSKNTLYLQMNSLRAEDTAVYYCARSSYYGSYYSIDYWGQGTLVTVSSGGGGSGGGGSGGGGSGGGGSDIQMTQSPSSLSASVGDRVTITCRASQSISSYLNWYQQKPGKAPKLLIYAASSLQSGVPSRFSGSGSGTDFTLTISSLQPEDFATYYCQQYYDNLPTFGQGTKLEIKSSEPKSSDKTHTCPPCPAPEAAGAPSVFLFPPKPKDTLMISRTPEVTCVVVDVSHEDPEVKFNWYVDGVEVHNAKTKPREEQYNSTYRVVSVLTVLHQDWLNGKEYKCAVSNKALPAPIEKTISKAKGQPREPQVYTLPPSRDELTKNQVSLTCLVKGFYPSDIAVEWESNGQPENNYKTTPPVLDSDGSFFLYSKLTVDKSRWQQGNVFSCSVMHEALHNHYTQKSLSLSPGSGGGGSGGGGSGGGGSPSEVQLLESGGGLVQPGGSLRLSCAASGFTFSSYAMSWVRQAPGKCLEWVSAISGSGGSTYYADSVKGRFTISRDNSKNTLYLQMNSLRAEDTAVYYCARYYGGYYSAWMDYWGQGTLVTVSSGGGGSGGGGSGGGGSGGGGSDIQMTQSPSSLSASVGDRVTITCRASQSISSFLNWYQQKPGKAPKLLIYAASSLQSGVPSRFSGSGSGTDFTLTISSLQPEDSATYYCQQTYGYLHTFGCGTKLEIKR | 0.41 | 8720 |  |  |  |  |  |  |
| ALG.APV-210 (bispecific antibody, Optimized ADAPTIR scFv-Fc-scFv homodimer with stabilizing disulfide in the 1210 scFv; also called 5T4-CD137 bispecific antibody) EVQLLESGGGLVQPGGSLRLSCAASGFTFSHGSMYWVRQAPGKGLEWVSSISSGSGSTYYADSVKGRFTISHDNSKNTLYLQMNSLRAEDTAVYYCARSSYYGSYYSIDYWGQGTLVTVSSGGGGSGGGGSGGGGSGGGGSDIQMTQSPSSLSASVGDRVTITCRASQSISSYLNWYQQKPGKAPKLLIYAASSLQSGVPSRFSGSGSGTDFTLTISSLQPEDFATYYCQQYYDNLPTFGQGTKLEIKEPKSSDKTHTCPPCPAPEAAGAPSVFLFPPKPKDTLMISRTPEVTCVVVDVSHEDPEVKFNWYVDGVEVHNAKTKPREEQYNSTYRVVSVLTVLHQDWLNGKEYKCAVSNKALPAPIEKTISKAKGQPREPQVYTLPPSRDELTKNQVSLTCLVKGFYPSDIAVEWESNGQPENNYKTTPPVLDSDGSFFLYSKLTVDKSRWQQGNVFSCSVMHEALHNHYTQKSLSLSPGSGGGGSGGGGSGGGGSPSEVQLLESGGGLVQPGGSLRLSCAASGFTFSSYAMSWVRQAPGKCLEWVSAISGSGGSTYYADSVKGRFTISRDNSKNTLYLQMNSLRAEDTAVYYCARYYGGYYSAWMDYWGQGTLVTVSSGGGGSGGGGSGGGGSGGGGSDIQMTQSPSSLSASVGDRVTITCRASQSISSFLNWYQQKPGKAPKLLIYAASSLQSGVPSRFSGSGSGTDFTLTISSLQPEDSATYYCQQTYGYLHTFGCGTKLEIKR | 0.56 | 8970 | no binding (tested: 1000 nM) | 0.4 | 0.2 | 10 |  |  |
| biotinylated ALG.APV-210 (bispecific antibody, also called ALG.APV-210 (biotinylated for FACS detection)) EVQLLESGGGLVQPGGSLRLSCAASGFTFSHGSMYWVRQAPGKGLEWVSSISSGSGSTYYADSVKGRFTISHDNSKNTLYLQMNSLRAEDTAVYYCARSSYYGSYYSIDYWGQGTLVTVSSGGGGSGGGGSGGGGSGGGGSDIQMTQSPSSLSASVGDRVTITCRASQSISSYLNWYQQKPGKAPKLLIYAASSLQSGVPSRFSGSGSGTDFTLTISSLQPEDFATYYCQQYYDNLPTFGQGTKLEIKEPKSSDKTHTCPPCPAPEAAGAPSVFLFPPKPKDTLMISRTPEVTCVVVDVSHEDPEVKFNWYVDGVEVHNAKTKPREEQYNSTYRVVSVLTVLHQDWLNGKEYKCAVSNKALPAPIEKTISKAKGQPREPQVYTLPPSRDELTKNQVSLTCLVKGFYPSDIAVEWESNGQPENNYKTTPPVLDSDGSFFLYSKLTVDKSRWQQGNVFSCSVMHEALHNHYTQKSLSLSPGSGGGGSGGGGSGGGGSPSEVQLLESGGGLVQPGGSLRLSCAASGFTFSSYAMSWVRQAPGKCLEWVSAISGSGGSTYYADSVKGRFTISRDNSKNTLYLQMNSLRAEDTAVYYCARYYGGYYSAWMDYWGQGTLVTVSSGGGGSGGGGSGGGGSGGGGSDIQMTQSPSSLSASVGDRVTITCRASQSISSFLNWYQQKPGKAPKLLIYAASSLQSGVPSRFSGSGSGTDFTLTISSLQPEDSATYYCQQTYGYLHTFGCGTKLEIKR |  |  |  |  |  |  | ~10 | 20 |
